Test results from the supplement of paper PMC5998384.

Assays:
[1] = test system: HeLa Kyoto; test: solubility in G1/S (NP-40 vs SDS abundance) (log2 ratio); higher = more soluble; conditions: cell cycle stage: G1/S
[2] = test system: HeLa Kyoto; test: solubility change mitosis vs G1/S (difference of NP-40 vs SDS log2 ratios) (log2 ratio difference); higher = more soluble in mitosis
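Throughout, for solubility change mitosis vs G1/S (difference of NP-40 vs SDS log2 ratios): synchronized HeLa Kyoto cells (double thymidine block for G1/S, nocodazole release for mitosis), protein amounts in NP-40 versus SDS lysates quantified by mass spectrometry, three biological replicates.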
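Throughout, for solubility in G1/S (NP-40 vs SDS abundance): HeLa Kyoto cells arrested at G1/S by double thymidine block, proteins quantified by TMT10plex mass spectrometry in mild NP-40 versus SDS extracts, three biological replicates.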

## MCAQYCISFADVEKAHINIRDSIHLTPVLTSSILNQLTGRNLFFKCELFQKTGSFKIRGALNAVRSLVPDALERKPKAVVTHSSGNHGQALTYAAKLEGIPAYIVVPQTAPDCKKLAIQAYGASIVYCEPSDESRENVAKRVTEETEGIMVHPNQEPAVIAGQGTIALEVLNQVPLVDALVVPVGGGGMLAGIAITVKALKPSVKVYAAEPSNADDCYQSKLKGKLMPNLYPPETIADGVKSSIGLNTWPIIRDLVDDIFTVTEDEIKCATQLVWERMKLLIEPTAGVGVAAVLSQHFQTVSPEVKNICIVLSGGNVDLTSSITWVKQAERPASYQSVSV [SRR]
[1]
  solubility in G1/S (log2): 0.0946
[2]
  solubility change mitosis (log2): 0.0667

## MCDQQQIQCRLPLQQCCVKGPSFCSSQSPFAQSQVVVQAPCEMQIVDCPASCPVQVCQVSDQAPCQSQTTQVKCQSKTKQVKGQAQCQSKTTQVKGQAASQSQTSSVQSQAPCQSEVSYVQCEASQPVQTCFVECAPVCYTETCYVECPVQNYVPCPAPQPVQMYRGRPAVCQPQGRFSTQCQYQGSYSSCGPQFQSRATCNNYTPQFQLRPSYSSCFPQYRSRTSFSPCVPQCQTQGSYGSFTEQHRSRSTSRCLPPPRRLQLFPRSCSPPRRFEPCSSSYLPLRPSEGFPNYCTPPRRSEPIYNSRCPRRPISSCSQRRGPKCRIEISSPCCPRQVPPQRCPVEIPPIRRRSQSCGPQPSWGASCPELRPHVEPRPLPSFCPPRRLDQCPESPLQRCPPPAPRPRLRPEPCISLEPRPRPLPRQLSEPCLYPEPLPALRPTPRPVPLPRPGQCEIPEPRPCLQPCEHPEPCPRPEPIPLPAPCPSPEPCRETWRSPSPCWGPNPVPYPGDLGCHESSPHRLDTEAPYCGPSSYNQGQESGAGCGPGDVFPERRGQDGHGDQGNAFAGVKGEAKSAYF [KPRP]
[1]
  solubility in G1/S (log2): -1.06
[2]
  solubility change mitosis (log2): 1.12

## MDDDKPFQPKNISKMAELFMECEEEELEPWQKKVEETQDEDDDELIFVGEISSSKPAISNILNRGHSSSSSKGIKSEPHSPGIPEIFRTASQRCRDPPSNPVAASPRFHLVSKSSQSSVTVENASKPDFTKNSQVGSDNSSILLFDSTQESLPPSQDIPAIFREGMKNTSYVLKHPSTSKVNSVTPKKPKTSEDVPQINPSTSLPLIGSPPVTSSQVMLSKGTNTSSPYDAGADYLRACPKCNVQFNLLDPLKYHMKHCCPDMITKFLGVIVKSERPCDEDKTDSETGKLIMLVNEFYYGRHEGVTEKEPKTYTTFKCFSCSKVLKNNIRFMNHMKHHLELEKQNNESWENHTTCQHCYRQYPTPFQLQCHIESTHTPHEFSTICKICELSFETEHILLQHMKDTHKPGEMPYVCQVCQFRSSTFSDVEAHFRAAHENTKNLLCPFCLKVSKMATPYMNHYMKHQKKGVHRCPKCRLQFLTSKEKAEHKAQHRTFIKPKELEGLPPGAKVTIRASLGPLQSKLPTAPFGCAPGTSFLQVTPPTSQNTTARNPRKSNASRSKTSKLHATTSTASKVNTSKPRGRIAKSKAKPSYKQKRQRNRKNKMSLALKNIRCRRGIHKCIECHSKIKDFASHFSIYIHCSFCKYNTNCNKAFVNHMMSSHSNHPGKRFCIFKKHSGTLRGITLVCLKCDFLADSSGLDRMAKHLSQRKTHTCQVIIENVSKSTSTSEPTTGCSLK [ZNF280C]
[1]
  solubility in G1/S (log2): -1.44
[2]
  solubility change mitosis (log2): 0.796

## MDDDLMLALRLQEEWNLQEAERDHAQESLSLVDASWELVDPTPDLQALFVQFNDQFFWGQLEAVEVKWSVRMTLCAGICSYEGKGGMCSIRLSEPLLKLRPRKDLVETLLHEMIHAYLFVTNNDKDREGHGPEFCKHMHRINSLTGANITVYHTFHDEVDEYRRHWWRCNGPCQHRPPYYGYVKRATNREPSAHDYWWAEHQKTCGGTYIKIKEPENYSKKGKGKAKLGKEPVLAAENKDKPNRGEAQLVIPFSGKGYVLGETSNLPSPGKLITSHAINKTQDLLNQNHSANAVRPNSKIKVKFEQNGSSKNSHLVSPAVSNSHQNVLSNYFPRVSFANQKAFRGVNGSPRISVTVGNIPKNSVSSSSQRRVSSSKISLRNSSKVTESASVMPSQDVSGSEDTFPNKRPRLEDKTVFDNFFIKKEQIKSSGNDPKYSTTTAQNSSSSSSQSKMVNCPVCQNEVLESQINEHLDWCLEGDSIKVKSEESL [SPRTN]
[1]
  solubility in G1/S (log2): -0.206
[2]
  solubility change mitosis (log2): 0.0242

## MDDSDTPTYYLQIEPQDGCHPGDSVERSVTCLPSASDENENQLDGDGHEHLTSSDSAMGKPQVSEQDSLNNNESCTLSCEVAAGENLQNTLCEASRDEQAFLGKDKKIPGKRSPRSKKGTAKKIPPGLFSGDIAPLMQEKVLSAVTYAVDDEEAAEVNANEQPEAPKLVLQSLFSLIRGEVEQLDSRALPLCLHQIAESYFQEEDYEKAMKFIQLERLYHEQLLANLSAIQEQWETKWKTVQPHTVTALRNSEKGFNGEDFERLTKICATHQDPLLSKHKIAAVEKSQERKCSTQLLVSEDPKEGGATTKESESKTCLGTESSKESQHTVEPLGSSPCCHQMDVQTDSPSLSVTAGKDHMEELLCSAEATLALHTQSSETAGSPSGPDSSEDACEDDSRLQLAQTEACQDVARIEGIAEDPKVFLSSKSKTEPLISPGCDRIPPALISEGKYSQAQRKELRLPLRDASEALPTDQLENNELNELQQPDLTDSDGKSPQAQADSDGSENVLCGNNQISDLGILLPEVCMAPEEKGDKDDQLNKETEDYLNSLLEGCLKDTEDSLSYEDNQDDDSDLLQDLSPEEASYSLQENLPSDESCLSLDDLAKRIEIAEVVPTEGLVSILKKRNDTVGDHPAQMQHKPSKRRVRFQEIDDSLDQDEVGGGSCILLVLLCIATVFLSVGGTALYCTFGDMESPVCTDFADNMDFYYTKLLQGVAELKHWIYLS [CNST]
[1]
  solubility in G1/S (log2): 0.292
[2]
  solubility change mitosis (log2): -0.0548

## MDGAVMEGPLFLQSQRFGTKRWRKTWAVLYPASPHGVARLEFFDHKGSSSGGGRGSSRRLDCKVIRLAECVSVAPVTVETPPEPGATAFRLDTAQRSHLLAADAPSSAAWVQTLCRNAFPKGSWTLAPTDNPPKLSALEMLENSLYSPTWEGSQFWVTVQRTEAAERCGLHGSYVLRVEAERLTLLTVGAQSQILEPLLSWPYTLLRRYGRDKVMFSFEAGRRCPSGPGTFTFQTAQGNDIFQAVETAIHRQKAQGKAGQGHDVLRADSHEGEVAEGKLPSPPGPQELLDSPPALYAEPLDSLRIAPCPSQDSLYSDPLDSTSAQAGEGVQRKKPLYWDLYEHAQQQLLKAKLTDPKEDPIYDEPEGLAPVPPQGLYDLPREPKDAWWCQARVKEEGYELPYNPATDDYAVPPPRSTKPLLAPKPQGPAFPEPGTATGSGIKSHNSALYSQVQKSGASGSWDCGLSRVGTDKTGVKSEGST [DOK1]
[1]
  solubility in G1/S (log2): -0.257
[2]
  solubility change mitosis (log2): 0.00435

## MDPGWGQRDVGWAALLILFAASLLTVFAWLLQYARGLWLARARGDRGPGPALAGEPAGSLRELGVWRSLLRLRATRAGAAEEPGVRGLLASLFAFKSFRENWQRAWVRALNEQACRNGSSIQIAFEEVPQLPPRASISHVTCVDQSEHTMVLRCQLSAEEVRFPVSVTQQSPAAVSMETYHVTLTLPPTQLEVNLEEIPGEGLLISWAFTDRPDLSLTVLPKLQARERGEEQVELSTIEELIKDAIVSTQPAMMVNLRACSAPGGLVPSEKPPMMPQAQPAIPRPNRLFLRQLRASHLGNELEGTEELCCVAELDNPMQQKWTKPARAGSEVEWTEDLALDLGPQSRELTLKVLRSSSCGDTELLGQATLPVGSPSRPLSRRQLCPLTPGPGKALGPAATMAVELHYEEGSPRNLGTPTSSTPRPSITPTKKIELDRTIMPDGTIVTTVTTVQSRPRIDGKLDSPSRSPSKVEVTEKTTTVLSESSGPSNTSHSSSRDSHLSNGLDPVAETAIRQLTEPSGRVAKKTPTKRSTLIISGVSKVPIAQDELALSLGYAASLEASVQDDAGTSGGPSSPPSDPPAMSPGPLDALSSPTSVQEADETTRSDISERPSVDDIESETGSTGALETRSLKDHKVSFLRSGTKLIFRRRPRQKEAGLSQSHDDLSNATATPSVRKKAGSFSRRLIKRFSFKSKPKANGNPSPQL [C2CD2L]
[1]
  solubility in G1/S (log2): -0.0395
[2]
  solubility change mitosis (log2): -0.0722

## MDPQPPPPAQGSPPHRGRGRGRGRGRGRGRGRGRGGAGAPRAPLPCPTCGRLFRFPYYLSRHRLSHSGLRPHACPLCPKAFRRPAHLSRHLRGHGPQPPLRCAACPRTFPEPAQLRRHLAQEHAGGEVELAIERVAKETAEPSWGPQDEGSEPPTTAAAGATEEEAVAAWPETWPAGEPSTLAAPTSAAEPRESESEEAEAGAAELRAELALAAGRQEEKQVLLQADWTLLCLRCREAFATKGELKAHPCLRPEGEQEGEGGPPPRPKRHQCSICLKAFARPWSLSRHRLVHSTDRPFVCPDCGLAFRLASYLRQHRRVHGPLSLLAPLPAAGKKDDKASGARNSAKGPEGGEGAECGGASEGGEGQNGGDAAPARPPAGEPRFWCPECGKGFRRRAHLRQHGVTHSGARPFQCVRCQREFKRLADLARHAQVHAGGPAPHPCPRCPRRFSRAYSLLRHQRCHRAELERAAALQALQAQAPTSPPPPPPPLKAEQEEEGLPLPLANIKEEPPSPGTPPQSPPAPPVFLSASCFDSQDHSAFEMEEEEVDSKAHLRGLGGLAS [ZNF579]
[1]
  solubility in G1/S (log2): -0.0421
[2]
  solubility change mitosis (log2): 0.288

## MDPRGTKRGAEKTEVAEPRNKLPRPAPSLPTDPALYSGPFPFYRRPSELGCFSLDAQRQYHGDARALRYYSPPPTNGPGPNFDLRDGYPDRYQPRDEEVQERLDHLLCWLLEHRGRLEGGPGWLAEAIVTWRGHLTKLLTTPYERQEGWQLAASRFQGTLYLSEVETPNARAQRLARPPLLRELMYMGYKFEQYMCADKPGSSPDPSGEVNTNVAFCSVLRSRLGSHPLLFSGEVDCTDPQAPSTQPPTCYVELKTSKEMHSPGQWRSFYRHKLLKWWAQSFLPGVPNVVAGFRNPDGFVSSLKTFPTMKMFEYVRNDRDGWNPSVCMNFCAAFLSFAQSTVVQDDPRLVHLFSWEPGGPVTVSVHQDAPYAFLPIWYVEAMTQDLPSPPKTPSPK [DXO]
[1]
  solubility in G1/S (log2): 0.0451
[2]
  solubility change mitosis (log2): -0.2

## MDPRVAWIQPEQKGPANALWMQIWETSQGVGRGGSGFASYFCLNSPALDTAAAAGAAGRGSGGLGPALPAASPPPPGPTAPAALPPALLTALGPAAEGARRLHKSPSLSSSSSSSSSNAESGTESPGCSSSSSSSASLGRPGGGRGGAFFNFADGAPSAPGTANGHPGPRGPAPAGSPSQHQFHPGRRKRENKASTYGLNYLLSGSRAAALSGGGGPGAQAPRPGTPWKSRAYSPGIQGLHEEIIDFYNFMSPCPEEAAMRREVVKRIETVVKDLWPTADVQIFGSFSTGLYLPTSDIDLVVFGKWERPPLQLLEQALRKHNVAEPCSIKVLDKATVPIIKLTDQETEVKVDISFNMETGVRAAEFIKNYMKKYSLLPYLILVLKQFLLQRDLNEVFTGGISSYSLILMAISFLQLHPRIDARRADENLGMLLVEFFELYGRNFNYLKTGIRIKEGGAYIAKEEIMKAMTSGYRPSMLCIEDPLLPGNDVGRSSYGAMQVKQVFDYAYIVLSHAVSPLARSYPNRDAESTLGRIIKVTQEVIDYRRWIKEKWGSKAHPSPGMDSRIKIKERIATCNGEQTQNREPESPYGQRLTLSLSSPQLLSSGSSASSVSSLSGSDVDSDTPPCTTPSVYQFSLQAPAPLMAGLPTALPMPSGKPQPTTSRTLIMTTNNQTRFTIPPPTLGVAPVPCRQAGVEGTASLKAVHHMSSPAIPSASPNPLSSPHLYHKQHNGMKLSMKGSHGHTQGGGYSSVGSGGVRPPVGNRGHHQYNRTGWRRKKHTHTRDSLPVSLSR [PAPD7]
[1]
  solubility in G1/S (log2): -0.21
[2]
  solubility change mitosis (log2): 0.0856
